# Patent US20130053541A1, “METHODS FOR DISCOVERING MOLECULES THAT BIND TO PROTEINS” (LYNNTECH, INC., priority 2011, published 2013)
# Target: T1, native human ESRRG protein (Homo sapiens, UniProt P62508)
# T1 sequence (P62508 1-458): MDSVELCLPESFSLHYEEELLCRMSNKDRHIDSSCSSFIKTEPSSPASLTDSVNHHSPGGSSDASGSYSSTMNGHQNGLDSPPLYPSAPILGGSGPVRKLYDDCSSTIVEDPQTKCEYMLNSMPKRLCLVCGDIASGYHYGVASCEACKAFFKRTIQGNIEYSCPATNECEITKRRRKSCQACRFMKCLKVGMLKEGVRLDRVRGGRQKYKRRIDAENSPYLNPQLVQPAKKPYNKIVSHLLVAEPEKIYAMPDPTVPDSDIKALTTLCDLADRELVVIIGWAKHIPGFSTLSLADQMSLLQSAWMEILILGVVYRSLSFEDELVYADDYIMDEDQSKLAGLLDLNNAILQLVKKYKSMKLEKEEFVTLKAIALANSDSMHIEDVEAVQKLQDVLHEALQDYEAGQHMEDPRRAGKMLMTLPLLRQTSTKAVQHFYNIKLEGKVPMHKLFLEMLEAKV
# Experiment: peptide microarray screening for ESRRG binding (Iteration 1 and 2)
# Details: for Sample A (Bkgd) Signal / Sample B (Probe) Signal: fluorescence intensity units
# Excerpt: The BLOSUM62 matrix was divided into Tiers based, with Tier 1 comprising “most conserved” (lowest penalty) and Tier 3 comprising “least conserved” (highest penalty) mutations observed in nature. Sequences for microarray production for the primary stage (Iteration 1) of screening for protein binding were created by permuting AA positions 4 and/or 5 only (i.e., core of sequence) of parent 8-mer peptides using Tier 1 and Tier 3 substitutions. This allows the systematic variation of the sequence in order to identify the most important motif within the larger candidate ligand sequence that is needed for binding the target protein. All peptides on the array were grown from the C→N terminal, with the exposed N-terminal amino acid masked by an acetyl group to prevent folding of the sequence and enable full presentation of the peptide to its target protein.
# Screening was carried out typically by hybridization of the protein (1 μg/mL) against the array for 1 h at 4° C.; detection of bound protein was carried out using a fluorescently labeled anti-ESRRG mAb. (Direct labeling of ESRRG and alternative detection strategies are equally valid).
# Highest binders (based on relative fluorescence signal) were selected and iteratively sequence expanded and arrayed (Iteration 2); and ESRRG binding sequences were selected as above. For iterative arrays, the core positions (AA 4 and 5) were kept unchanged while the outer amino acids (2, 3, 6, and/or 7) were permuted using Tier 3 substitutions.
# Daughter candidate ligands and their new Tier 3 and/or Tier 1 based combinations were synthesized in situ on an addressable peptide microarray and screened against native human ESRRG protein in order to determine sequences that bind to this protein. Bound protein was detected by a fluorescently labeled anti-ESRRG mAb. Results are obtained in fluorescence intensity units which were used to rank the peptide ligands. Excess (100×) competing biological matrices (human serum, HSA/BSA or bacterial protein extract) were used as backgrounds to select for specific ligands to the protein. Other competing proteins can be added to background for specificity selection and directed evolution of ligands.
# Iterative sequence expansion and arraying of 10 highest binding ligands to ESRRG from Iteration 1 was carried out and the new peptide sequences were synthesized on an array and screened against the protein, as described above. In this step, the central 2 amino acids (core) in peptide sequences were maintained unchanged while outlying amino acids (2, 3, 6, and 7) were permuted (using Tier 1 and Tier 3 substitutions) in a ‘cipher’ or ‘combination’ lock approach. Further affinity maturation of sequence was observed, with multifold enhancement in binding signal of Iteration 2 sequences (i.e., Granddaughters) compared to their respective parents from Iteration 1 (i.e., Daughters) on the same array.
Substance,Sample A (Bkgd) Signal (Iteration 2 iterative screen),Sample B (Probe) Signal (Iteration 2 iterative screen),Sample A (Bkgd) Signal (Iteration 1 primary screen),Sample B (Probe) Signal (Iteration 1 primary screen),log2 (Sample B/Sample A) (Iteration 1 primary screen)
FFKGHFKF,543.19,"5,435.29",,,
NNNFSLHM,199.94,"4,374.19",,,
WLLLKHGL,222.13,,,,
EDSYPRDG,297.83,"5,021.94",,,
ANNSLLLH,,,14.53,"1,321.14",
RRSYPRGR,445.58,"1,661.87",,,
Ac-ANNSRLLH-NH2 (C-terminus assumed),,,31.74,"1,480.35",5.54
LLHLQKSQ,,,14.95,,
LHLKGSQT,,,6.97,,
PDSYPRWG,288.88,"5,591.60",,,
AANYVLLL,,,14.74,"2,199.01",
Ac-IKQDHNNS-NH2 (C-terminus assumed),,,1.00,701.08,9.45
EESYPRDK,121.27,,,,
ANNIQLLH,,,2.12,,
ANNSSLLH,,,7.39,"1,153.13",
FFNFSLPA,165.50,"1,043.90",,,
ANNFLLLH,,,46.43,"1,624.73",
DNNYLLLL,156.87,"2,242.02",,,
ANNLKLLH,,,56.94,"1,672.30",
Ac-NSLLKHLL-NH2 (C-terminus assumed),,,73.81,"14,810.16",7.65

Substance,Sample A (Bkgd) Signal (Iteration 2 iterative screen),Sample B (Probe) Signal (Iteration 2 iterative screen),Sample A (Bkgd) Signal (Iteration 1 primary screen),Sample B (Probe) Signal (Iteration 1 primary screen),log2 (Sample B/Sample A) (Iteration 1 primary screen)
AANNYLLL,,,31.22,"3,436.10",
AANYLLLL,,,22.22,"3,763.81",
ANNLSLLH,,,21.54,"1,220.01",
ALNFSLNW,152.44,,,,
ANNSWLLH,,,20.06,"1,259.63",
NIKVHANN,,,9.00,,
FVNFSLGI,238.31,,,,
NSLLQHLL,,,2.42,"9,739.76",
ANNLQLLH,,,47.08,"1,537.71",
NSLRQHLL,,,47.85,"3,242.55",
WRSYPRRA,619.96,"2,611.56",,,
NFNYLLPH,470.56,"13,817.90",,,
Ac-IKQNHNNS-NH2 (C-terminus assumed),,,1.00,793.75,9.63
HNNYLLNN,190.35,,,,
FWNMYLNP,158.25,,,,
Ac-LLHKSKSQ-NH2 (C-terminus assumed),,,30.24,962.22,4.99
PGKGHFPI,260.71,,,,
ANNIWLLH,,,30.52,"1,012.72",
DRSYPRHT,68.94,,,,

# Now from value to substance:
Sample A (Bkgd) Signal (Iteration 2 iterative screen),Sample B (Probe) Signal (Iteration 2 iterative screen),Sample A (Bkgd) Signal (Iteration 1 primary screen),Sample B (Probe) Signal (Iteration 1 primary screen),log2 (Sample B/Sample A) (Iteration 1 primary screen),Substance
731.12,"3,422.79",,,,NNSYPRHR
183.65,"1,745.92",,,,HLKLKQEN
160.50,"4,797.29",,,,DINFSLGI
,,13.78,"2,012.02",,AANYILLL
,,64.73,"4,011.85",,AANMYLLL
277.71,"2,776.37",,,,LFKLKQDG
216.15,"2,297.98",,,,NLLLKHPD
,,19.03,851.06,5.48,Ac-AIRGALMG-NH2 (C-terminus assumed)
292.56,"2,198.94",,,,WNSYPRND
81.50,"7,243.75",,,,HDNMYLNE
,,65.96,"1,997.75",,ANNVLLLH
,,28.09,942.75,5.07,Ac-AIRLHLMG-NH2 (C-terminus assumed)
,,19.42,819.16,5.40,Ac-LLHSSKSQ-NH2 (C-terminus assumed)
,,3.04,598.87,7.62,Ac-NIKVNANN-NH2 (C-terminus assumed)
,,20.67,"1,673.50",,NSLRSHLL
219.12,"2,423.10",,,,LFLLQQDD
209.10,"1,231.15",,,,WGKLKQGE
202.29,,,,,YFLLQQGP
366.58,"1,857.96",,,,LFKLKQND
,,20.79,856.14,5.36,Ac-NSLRKHLL-NH2 (C-terminus assumed)
238.04,"1,007.54",,,,IFLLQQDN
494.92,"2,451.98",,,,HRSYPRVY
251.75,"1,558.62",,,,FYNMYLLN
143.58,,,,,HNSYPRNE
,,23.60,"1,009.30",,ANNSKLLH
115.46,,,,,AHNYLLEH

Sample A (Bkgd) Signal (Iteration 2 iterative screen),Sample B (Probe) Signal (Iteration 2 iterative screen),Sample A (Bkgd) Signal (Iteration 1 primary screen),Sample B (Probe) Signal (Iteration 1 primary screen),log2 (Sample B/Sample A) (Iteration 1 primary screen),Substance
240.19,"1,309.00",,,,YHNYLLHP
197.52,"1,339.15",,,,PWKLKQDP
,,25.96,"1,191.86",,AANMLLLL
,,18.88,,,AIRGHLMG
165.10,"1,296.65",,,,HYKLKQHE
,,52.38,"1,718.47",,ANNVKLLH
641.69,"3,108.23",,,,HFKLKQGG
,,5.04,"9,219.14",10.84,Ac-NSLKKHLL-NH2 (C-terminus assumed)
115.25,,,,,AFNMYLDE
,,11.78,,,AIRVHLMG
209.87,"2,464.29",,,,TGKLKQDG
805.42,"19,001.58",,,,HRSYPRRG
553.79,"3,049.48",,,,GKSYPRHR
,,23.54,,,NNSWSLHL
,,42.26,"1,752.81",5.37,Ac-AANMFLLL-NH2 (C-terminus assumed)
,,62.19,"1,818.72",,ANNVSLLH
184.58,,,,,MYKLKQDN
,,25.76,"1,042.20",,NSLSWHLL
,,88.50,"7,385.40",,KSLLQQLL
,,16.99,"1,217.01",,AANMSLLL
182.90,"2,860.10",,,,WANYLLPP
,,23.63,,,RKAIFGKY
,,23.70,,,IKQNYNNS
,,13.51,"1,093.06",,ANNILLLH
107.88,,,,,HNNFSLEP
